We go through 20 sequences from the DeepSol protein solubility set.

The nature of the data set: soluble on expression in E. coli; label from the status in PepcDB or PDB records.
For the sequence “MGSDKIHHHHHHLSCCGQIGKITVGNGIWGILEEGMQSKAGTADQGWALEEKLDEFNRHQHPFNGSGADESFAYVIKKGDQVVGGVAASSDDNAIGYIELLWVDETMRRQGLGRALLATVEQALQAAGCKRVRLETFDYQAPAFYLENGYHEFGKLNYDYAGVIEYFFVKMLSLPIGYNIPPAFSIEAAEDLAMEAIENKLHAYNVKMKPLLQQKMGVTFTFLAEENGQCIGGIFGYSTMYKIGYIESLWVAETNRHAGVGTALVDVLVNALKDFGCPIVHLDTMSYQGAAFYKALGFEQFGQLTYPEIDAAEVFFVKHLVSVGERTINANK”, the “soluble on expression in E. coli” value is listed as “not soluble”.
Next, “MSLTTIRVFDTTLRDGEQMPGVSLPLEYKIRIAKQLDKLGVDVIEAGFPSATKGEFESVKEISSLSLNAEICGLARIVKEDIDAAINANVDMVHIFVPTSRIQIEHTVKMSKEEIIEKSVECVEYIKSHGVKCMFSAMDATRTEVEYLKQIFKAVENAKVDIVNVPDTVGVATPFKFYELIKQLREHLKVPIDVHCHNDFGLAVANTYAAVMAGANEVQVTVNGIGERAGNADLAQVVMILHAIEGIKTNIKTEHLFETSKLVERLTGVKMPPNHPIVGENAFSHESGIHAHGVLKEYSEGHHHHHH”: “soluble”.
Next, “MGSDKIHHHHHHVKELHESSTIISFKEHTDVNADSILELSFLKLQTKDSCLVKNVGLIRELNNCLLILDSANSNLYVFNKSGAFVNQIGQKGSGPGEYILLSSFFVDNNKNYIAAIDIAQDKVLYYNATDFSFLYERRLPFSTSCCLQLEDGNLLWNSREYTDSKLSDFYFVVTDSLFDIIDYKMNKEFKSGYTTGPSQMIYKVGTNVFAYTPFDLTIYRVGTSEIVPAHSFSFEGTDIPSLDFLNKTSNQGNSNYLYDLIQSDYISYYCVEETERDLFVCYMKNKEKYIGLYDKNTDRTYNYPIKIFQDQLKVGELNYFSIGSVDDYHVAPLDVLSLKDMAGNGYVFDDKLSELLTISNEEDNSILLFVRIKK”: “not soluble”; “MAHHHHHHMGNTNSSADRSNADDRGVHSEFMYRYETTKKLKLSYMMLKKNVATAVMTMEVTPQHLRDVGTGYSNVCACLKHGGSGGTNSCIQGQAAGREQASISRSRIDREFADESYKGFQTFCEAMDDIKAGVCVTSRTAIHERITVELDRMVLTAERVLKQGRKTMRSMAHFTKVARQVSRRERAAVDQGKDLSSSKRYAKAVKERNEKESLYKTELEAFDQLYEHVMVVSQEFCSSTTDIFLDCIVGYYREIVATIDVSDTPQCSRLQSRFRSREREVVLHQASDAGFCAMPAGHMDGSKSLSSTVPLKWD”: “soluble”.
For “MLICNDKSNPKTLLEEIMALRPWRKGPFEISQIKIDSEWDSSIKWDLVKNATPLKDKVVADVGCNNGYYLFKMLEHGPKSLVGFDPGVLVKKQFEFLAPFFDKEKKIIYESLGVEDLHEKYPNAFDVIFCLGVLYHRKSPLEALKALYHALKIKGELVLDTLIIDSPLDIALCPKKTYAKMKNVYFIPSVSALKGWCERVGFENFEILSVLKTTPKEQRKTDFILGQSLEDFLDKTDPSKTLEGYDAPLRGYFKMLKPSKR”, the “soluble on expression in E. coli” value is “not soluble”.
Next, “MGSDKIHHHHHHMIDLHCHTTASDGVVTPSNVIRQASRKGIAVLAIADHDTVNGLDEAAGAAEKEGICLIPAIELSVAFPKGDFHLLGYGIQYKNENFRNKLAQLRTIREERIFRIIERLKRYGLNLTHEDLQNESQGDAPGKAHVARVLVRKRYASNFNVACKTYLNEGMPGYVPKEKLSLESACELINNAGGLSVLAHPKSLNGENHEEYERIIQMCVSHGLAGIEVYASLHDNQDVRLFLELARRHRLIATGGSDFHGDNGACLGYYGHRRPVPESCSQPLLQKISQNKT”: “not soluble”; “MKREQILSLIAEIDDLLNALNMVVKEIEEKKREFSDKEPDQFILRALGSLLHDFYTIIEDIFELISSEMNGVRLDSFDWHKRLLNKMTLEIPGLRPAVISKRLKEMLDEYLRFRHVFRNVYGYLLQWERMKPLLEKAGAVYERFEEEIERFKDFLRELAEKM”: “not soluble”; “SGSCCSCPDKDTVPDNHRNKFKVINVDDDGNELGSGIMELTDTELILYTRKRDSVKWHYLCLRRYGYDSNLFSFESGRRCQTGQGIFAFKCARAEELFNMLQEIMQNNSINVVEEPVVERNNHQTELEVPRTPRTPTTPGFAAQNLPNGYPRYPSFGDASSHPSSRHPSVGSARLPSVGEESTHPLLVAEEQVHTYVNTTGVQEERKNRTSVHVPLEARVSNAESSTPKEEPSSIEDRDPQILLEPEGVKFVLGPTPVQKQLMEKEKLEQLGRDQVSGSGANNTEWDTGYDSDERRDAPSVNKLVYENINGLSIPSASGVRRGRLTSTSTSDTQNINNSAQRRTALLNYENLPSLPPVWEARKLSRDEDDNLGPKTPSLNGYHNNLDPMHNYVNTENVTVPASAHKIEYSRRRDCTPTVFNFDIRRPSLEHRQLNYIQVDLEGGSDSDNPQTPKTPTTPLPQTPTRRTELYAVIDIERTAAMSNLQKALPRDDGTSRKTRHNSTDLPMLAWK”: “soluble”.
Next, “QQFPNECQLDQLNALEPSHVLKAEAGRIEVWDHHAPQLRCSGVSFVRYIIESKGLYLPSFFSTAKLSFVAKGEGLMGRVVPGCAETFQDSSVFQPGGGSPFGEGQGQGQQGQGQGHQGQGQGQQGQQGQQGQQSQGQGFRDMHQKVEHIRTGDTIATHPGVAQWFYNDGNQPLVIVSVLDLASHQNQLDRNPRPFYLAGNNPQGQVWIEGREQQPQKNILNGFTPEVLAKAFKIDVRTAQQLQNQQDNRGNIIRVQGPFSVIRPPLRSQRPQEEVNGLEETICSARCTDNLDDPSNADVYKPQLGYISTLNSYDLPILRFLRLSALRGSIRQNAMVLPQWNANANAVLYVTDGEAHVQVVNDNGDRVFDGQVSQGQLLSIPQGFSVVKRATSEQFRWIEFKTNANAQINTLAGRTSVLRGLPLEVISNGYQISLEEARRVKFNTIETTLTHSSGPASYGGPRKADA”: “soluble”; “NGYEALIMTHSAVTDPPLMIRSADNSLIKADDKTLLTALEAEGIGSYSFILTGEGLVKTKYRQQAVSLMGVDDRYPRTVKIDSIVFAGTFATDTLSGATALNVGAAIATEMQLGAGFVEAVEVIVPRRIGLINPLVPAGAFKSLQGQVASVFASGLQPEDNSIILSIDSLRKLLDYSDHEAEAVAIQLRTGSDAEQIALRLKETLGDSYQVLDLAGQHPEITHLIAMEKWMS”: “not soluble”.
Next, “GASSLKDEVPTETSEDFGFKFLGQKQILPSFNEKLPFASLQNLDISNSKSLFVAASGSKAVVGELQLLRDHITSDSTPLTFKWEKEIPDVIFVCFHGDQVLVSTRNALYSLDLEELSEFRTVTSFEKPVFQLKNVNNTLVILNSVNDLSALDLRTKSTKQLAQNVTSFDVTNSQLAVLLKDRSFQSFAWRNGEMEKQFEFSLPSELEELPVEEYSPLSVTILSPQDFLAVFGNVISETDDEVSYDQKMYIIKHIDGSASFQETFDITPPFGQIVRFPYMYKVTLSGLIEPDANVNVLASSCSSEVSIWDSKQVIEPSQDSERAVLPISEETDKDTNPIGVAVDVVTSGTILEPCSGVDTIERLPLVYILNNEGSLQIVGLFHVAAIKS”: “soluble”; “MGSDKIHHHHHHMATLYLIEQGAEIGCDGERIVVRRAGEIIGSVPLVKVDDIVIFGNIGISTPAIKRLLDRSIEVTFMTVDGSYQGRLVGQVTAHVALRQAQYACAADSDRTLRLAQSFVEGKLRNQRALLQRFSRNRATPPAEALAAADDLDAYIKRVRRTTRLSALLGVEGSATARYFAGLRSLIEPEWDFRSRQRRPPPDPVNLLLSFGYTLLTHKTLGAVQAAGFDPYLGFLHSLDYGRPSLALDLMEEFRPLLIDSLVVRVCNDGRLRLEHFQPGDEARPVIITDEGKRAFLTAFEERMRTEATHPEGADSGPGKVTYQRCIALQARRLARVIRGQQERYEPFTAR”: “not soluble”; “SLKNSESHGEADGGLRERKKRETKKRLTEKGIALFLERGFDNTTLDEIASAAGISRRTFFYYFKSKDEILLSLQSGIGEMLADAVRRAPSSSTPIEVVRDAAIGVCKVIPTNDMIEMDRLMRTSPSVQARKQVSYVQQEGEIYEALSERWPEPERSTALRVVAMLSVGAMRIAGDIFSQEKGVRPMVDLLEEAFGSLIQEVRSGDPRV”: “soluble”.
Regarding “MSLAQMPLTPNPDQHNAIQRVLKSLHHYQAFLLDGLTGSGKTEVYLQIMHEVLKQGKQVLVLVPEIGLTPQTISRFKSRFHCDVALLHSGLNDSKRLQAWQQAKMGKASIILGTRSAIYTPLPRLGLIILDEEHDLSYKQQEGFRYHARDVALYRGYLEQCPVILGSATPSIDSYHLVEQNKLELLQLNQRAGVALLPKMHLIDLKVAKKNEGLSQILIDQIQHTLDRQEQVLIFLNRRGYAPVLVCESCGWQANCPNCDAHFTLHTQPYGYLHCHHCGTIHRLPETCPECHHHTLKTLGMGTAKVEEHLKTLFPEHDVIRVDRDSTSRVGSWQKIYDRIQHNKPMILLGTQMLAKGHHFPYVTLVAILDIDAGLLSVDVRAPERTAQLIVQVAGRAGRGEHKGHVYMQTLRPDHPMLTTLIEKDYRAVAKDMLEERKAARLPPYRYSVLIRCESRDRDYSQAFLQEIAQMLQHQAGDSIEIWGPIPAPMERKAGRYRAHMVILAQDRARLHFFLRPWWAEVIQLPRQHQLRLSIDVDPQEFNEGHHHHHH”, the “soluble on expression in E. coli” value is “soluble”.
For the sequence “MSLSSDSGNSSGKTTIEWWNITTTEPAKKLWAQRAKEFEAAHPDVKIKIVTLENEAYKSKMTAQTASGKLPDIYHTWGGGVLEQQIDAGLVEDLTDRVSSWTDTYVPAALAAYRFDSRTYAVPFDIGAVGFWYNKALFKQAGIDTPPTTWSGFLDAVRSLKSAGITPIALAGKEKWPGMYYWAYLSMRVAGLDAMHKAATDADFTGDGFVKAGQHLKDLVALQPFQKGFLGAGYSTPTGEAAAMGNGKAAMELMGQWAPVVEKDAGKGLGKDLGFFSFPAVEGGKGALTEVFGGGGGHAVRKGAPEAAVEFLKFFGEKEFAGKLVKETGLIPVSKDARGALTDPNLTAVSDALNAATGFQLYLDQAYAPAVGQEINDSVAALVAGSKSPQQVTRSVTQVAKSEKSEGHHHHHH”, the “soluble on expression in E. coli” value is “not soluble”.
For the sequence “MGSDKIHHHHHHMTNQNYLAKTTNKQYIVKFFGKGTEKLINRQDEKYNLELLKDLGLDVKNYLFDIEAGIKVNEYIESAITLDSTSIKTKFDKITPILQTIHTSAKELRGEFAPFEEIKKYESLIEEQIPYANYESVRNAVFSLEKRLADLGVDRKSCHIDLVPENFIESPQGRLYLIDWEYSSMNDPMWDLAALFLESEFTSQEEETFLSHYESDQTPVSHEKIAIYKILQDTIWSLWTVYKEEQGEDFGDYGVNRYQRAIKGLASYGGSDEK”, the “soluble on expression in E. coli” value was “not soluble”.
Regarding “MKIVEGVSLHLIKNQQFKTNHLTFRFSGDFNNKTVARRSLVAQMLVTANAKYPKVQEFREKLASLYGASLSTKISTKGLVHIVDIDIVFVKNTFTLEQENIVEQIITFLEDMLFSPLISLEQYQTSIFDTEKKN”, the “soluble on expression in E. coli” value was “not soluble”.
In the case of “GSHNSHMKLQEVEIRNKDLEGQLSEMEQRLEKSQSEQDAFRSNLKTLLEILDGKIFELTELRDNLAKLLECS”, the “soluble on expression in E. coli” value is recorded as “soluble”.
“MGSDKIHHHHHHMFRPKLLFTSLAALALGACSPQDPQAVTSAAIANQVILPTYSRWVEADRTLAASALAYCEGKESLDKARADFLNAQKAWAELQPLLVGPLAEGNRAWQVQFWPDKKNLVGRQVEQLVNGDKPVDAEALGKSSVVVRGLSAYEYILFDSKPDIATAEQKARYCPLLVAIGAHQKALAEEILKGWNSTDGMLSQMTKFPNQRYADSHEAIADLLRAQVTALDTLKKKLGAPMGRQSKGIPQPLQAEAWRSHNSMNSLQASLKAAEAVWVGVDNQGLRGLLPSDQKALADKIDAAYATSLKLLADNQKTLGELLADDAGQQTLNQIYDSLNVVHRLHEGDLAKALNIQLGFNANDGD”: the “soluble on expression in E. coli” value is listed as “not soluble”.
“MDKSTKDFMDLKKIGGDDERERRFSDASDTSMDCHMESIGSRRRDSLIEQFRDFLNRSMDFSVKIDDPFEKEMY”: the “soluble on expression in E. coli” value is on record as “not soluble”.
